Source: the supplement of paper PMC10201428
± gives the standard deviation of the averaged measurements.

Tests used:
[1] = test system: VchCAST RNA-guided transposition machinery (E. coli BL21(DE3) host, lacZ target); assay: relative integration efficiency (T-LR orientation) vs wild-type transposon end (log2 (normalized fold change)); transposon end mutated: right end (5 bp flank + 75 bp right end); higher = more efficient transposition
Procedure, shortened: (§1)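 In E. coli BL21(DE3), a T7-driven effector plasmid was paired with a pUC57 mini-transposon donor containing 1549 left-end or 1849 right-end barcoded transposon variants. Cells grew on plates with 0.1 mM IPTG at 37°C for 18 h. Relative integration efficiency was derived from Illumina reads of genomic integration junctions against input plasmids, as a log-transformed output/input barcode fold change normalised to reference barcodes.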

[2] = test system: VchCAST RNA-guided transposition machinery (E. coli BL21(DE3) host, lacZ target); assay: relative integration efficiency (T-RL orientation) vs wild-type transposon end (log2 (normalized fold change)); transposon end mutated: right end (5 bp flank + 75 bp right end); higher = more efficient transposition
Procedure, shortened: as §1

Row | Sequence | relative integration efficiency (log2) [1] | relative integration efficiency (log2) [2]
1 | ACATTTGTTGATACAACCATAAAATGATAATTACACCCATAACGTGATAATTATCACACCCATAAATTGATATTGCCTCTGATCATAGTCAGACCAACATTGCTACGACCCGTATTCGCACCGACAC | 0.32 ± 0.18 | 0.496 ± 0.076
2 | ACATTTGTTGATACAACCATAAAATGATAATTACACCCATAATAACATAATTATCACACCCATAAATTGATATTGCCTCTGATCATAGTCAGACCAACATTGCTACGACCCGTATTCGCACCGACAC | -1.45 ± 0.04 | -2.11 ± 0.092
3 | ACATTTGTTGATACAACCATAAAATGATAATTACACCCATAATATGATAATTATCACACCCATAAATTGATATTGCCTCTGATCATAGTCAGACCAACATTGCTACGACCCGTATTCGCACCGACAC | -0.175 ± 0.045 | -0.297 ± 0.039
4 | ACATTTGTTGATACAACCATAAAATGATAATTACACCCATAATTTGATAATTACCACTCCCAATTTAACTATAACGCTCTGATCATAGTCAGACCAACATTGCTACGACCCGTATTCGCACCGACAC | 2.36 ± 0.071 | -1.09 ± 0.25
5 | ACATTTGTTGATACAACCATAAAATGATAATTACACCCATACCGGGATAATTATCACACCCATAAATTGATATTGCCTCTGATCATAGTCAGACCAACATTGCTACGACCCGTATTCGCACCGACAC | -2.1 ± 0.086 | -2.211 ± 0.0089
6 | ACATTTGTTGATACAACCATAAAATGATAATTACACCCATACCGGTCGCCGGCGACACAAACGCCCGGTCGCGGTAAGAGGATCATAGTCAGACCAACATTGCTACGACCCGTATTCGCACCGACAC | 0.296 ± 0.13 | -2.6 ± 0.11
7 | ACATTTGTTGATACAACCATAAAATGATAATTACACCCATACCTTGATAATTATCACACCCATAAATTGATATTGCCTCTGATCATAGTCAGACCAACATTGCTACGACCCGTATTCGCACCGACAC | -0.978 ± 0.071 | -0.707 ± 0.089
8 | ACATTTGTTGATACAACCATAAAATGATAATTACACCCATATTAAGATAATTATCACACCCATAAATTGATATTGCCTCTGATCATAGTCAGACCAACATTGCTACGACCCGTATTCGCACCGACAC | -0.688 ± 0.12 | -0.6107 ± 0.0014
9 | ACATTTGTTGATACAACCATAAAATGATAATTACACCCATATTTTGATAATTATCACACCCATAAATTGATATTGCCTCTGATCATAGTCAGACCAACATTGCTACGACCCGTATTCGCACCGACAC | 0.00197 ± 0.1 | -0.188 ± 0.015
10 | ACATTTGTTGATACAACCATAAAATGATAATTACACCCATCAATTGATAATTATCACACCCCATTTAACTATAACGCTCTGATCATAGTCAGACCAACATTGCTACGACCCGTATTCGCACCGACAC | 1.6 ± 0.24 | -1.68 ± 0.23
11 | ACATTTGTTGATACAACCATAAAATGATAATTACACCCATCAATTGATAATTATCCCACCCAATTTAACTATAACGCTCTGATCATAGTCAGACCAACATTGCTACGACCCGTATTCGCACCGACAC | 1.54 ± 0.022 | -1.93 ± 0.31
12 | ACATTTGTTGATACAACCATAAAATGATAATTACACCCATCAATTGATAATTATCCCACCCCATTTAACTATAACGCTCTGATCATAGTCAGACCAACATTGCTACGACCCGTATTCGCACCGACAC | 1.52 ± 0.21 | -2.54 ± 0.3
13 | ACATTTGTTGATACAACCATAAAATGATAATTACACCCATCCATTGATAATTATCACACCCATAAATTGATATTGCCTCTGATCATAGTCAGACCAACATTGCTACGACCCGTATTCGCACCGACAC | -1.63 ± 1 | -1.21 ± 0.089
14 | ACATTTGTTGATACAACCATAAAATGATAATTACACCCATCCCGGTCGCCGGCGACACAAACGCCCGGTCGCGGTAAGAGGATCATAGTCAGACCAACATTGCTACGACCCGTATTCGCACCGACAC | 0.414 ± 0.23 | -2.64 ± 0.12
15 | ACATTTGTTGATACAACCATAAAATGATAATTACACCCATCCCGTGATAATTATCACACCCATAAATTGATATTGCCTCTGATCATAGTCAGACCAACATTGCTACGACCCGTATTCGCACCGACAC | -1.98 ± 0.74 | -1.77 ± 0.12
16 | ACATTTGTTGATACAACCATAAAATGATAATTACACCCATTAATTGATAATAATGACACCGAATTTAACTATAACGCTCTGATCATAGTCAGACCAACATTGCTACGACCCGTATTCGCACCGACAC | 2.24 ± 0.16 | -1.51 ± 0.32
17 | ACATTTGTTGATACAACCATAAAATGATAATTACACCCATTAATTGATAATGATGACACCGAATTTAACTATAACGCTCTGATCATAGTCAGACCAACATTGCTACGACCCGTATTCGCACCGACAC | 2.15 ± 0.056 | -1.4 ± 0.35
18 | ACATTTGTTGATACAACCATAAAATGATAATTACACCCATTAATTGATAATTGTGACACCGAATTTAACTATAACGCTCTGATCATAGTCAGACCAACATTGCTACGACCCGTATTCGCACCGACAC | 2.21 ± 0.16 | -1.29 ± 0.37

Row | Sequence | relative integration efficiency (log2) [1] | relative integration efficiency (log2) [2]
19 | ACATTTGTTGATACAACCATAAAATGATAATTACACCCATTTATTGATAATTATCACACCCATAAATTGATATTGCCTCTGATCATAGTCAGACCAACATTGCTACGACCCGTATTCGCACCGACAC | -0.628 ± 0.89 | -0.33 ± 0.029
20 | ACATTTGTTGATACAACCATAAAATGATAATTACACCCATTTTATGATAATTATCACACCCATAAATTGATATTGCCTCTGATCATAGTCAGACCAACATTGCTACGACCCGTATTCGCACCGACAC | 2.63 ± 0.56 | 2.79 ± 0.74
21 | ACATTTGTTGATACAACCATAAAATGATAATTACACCCCGAAATTGATAATTATCACACCCATAAATTGATATTGCCTCTGATCATAGTCAGACCAACATTGCTACGACCCGTATTCGCACCGACAC | -2.51 ± 0.16 | -3.14 ± 0.19
22 | ACATTTGTTGATACAACCATAAAATGATAATTACACCCCGCCATTGATAATTATCACACCCATAAATTGATATTGCCTCTGATCATAGTCAGACCAACATTGCTACGACCCGTATTCGCACCGACAC | -2.56 ± 0.28 | -3.5 ± 0.22
23 | ACATTTGTTGATACAACCATAAAATGATAATTACACCCCGCCCGGTCGCCGGCGACACAAACGCCCGGTCGCGGTAAGAGGATCATAGTCAGACCAACATTGCTACGACCCGTATTCGCACCGACAC | 0.746 ± 0.13 | -2.33 ± 0.061
24 | ACATTTGTTGATACAACCATAAAATGATAATTACACCCCTACATTGATAATTATCACACCCAATTTAACTATAACGCTCTGATCATAGTCAGACCAACATTGCTACGACCCGTATTCGCACCGACAC | 0.306 ± 0.013 | -2.87 ± 0.33
25 | ACATTTGTTGATACAACCATAAAATGATAATTACACCCTAAAATTGATAATTATCACACCCATAAATTGATATTGCCTCTGATCATAGTCAGACCAACATTGCTACGACCCGTATTCGCACCGACAC | -1.14 ± 0.11 | -0.736 ± 0.05
26 | ACATTTGTTGATACAACCATAAAATGATAATTACACCCTATTATTGATAATTATCACACCCATAAATTGATATTGCCTCTGATCATAGTCAGACCAACATTGCTACGACCCGTATTCGCACCGACAC | -0.974 ± 0.13 | -0.713 ± 0.11
27 | ACATTTGTTGATACAACCATAAAATGATAATTACACCGTATAATTGATAATTATCACACCCATAAATTGATATTGCCTCTGATCATAGTCAGACCAACATTGCTACGACCCGTATTCGCACCGACAC | -1.63 ± 0.12 | -1.74 ± 0.11
28 | ACATTTGTTGATACAACCATAAAATGATAATTACACCGTTAAATTGATAATTATCACACCCATAAATTGATATTGCCTCTGATCATAGTCAGACCAACATTGCTACGACCCGTATTCGCACCGACAC | -1.18 ± 0.3 | -0.609 ± 0.084
29 | ACATTTGTTGATACAACCATAAAATGATAATTACACGGATAAATTGATAATTATCACACCCATAAATTGATATTGCCTCTGATCATAGTCAGACCAACATTGCTACGACCCGTATTCGCACCGACAC | -0.469 ± 0.21 | -0.265 ± 0.13
30 | ACATTTGTTGATACAACCATAAAATGATAATTACACGGTAAAATTGATAATTATCACACCCATAAATTGATATTGCCTCTGATCATAGTCAGACCAACATTGCTACGACCCGTATTCGCACCGACAC | -2.29 ± 0.055 | -1.85 ± 0.1
31 | ACATTTGTTGATACAACCATAAAATGATAATTACAGGCATAAATTGATAATTATCACACCCATAAATTGATATTGCCTCTGATCATAGTCAGACCAACATTGCTACGACCCGTATTCGCACCGACAC | -0.52 ± 0.19 | -0.00584 ± 0.032
32 | ACATTTGTTGATACAACCATAAAATGATAATTACAGGGTTAAATTGATAATTATCACACCCATAAATTGATATTGCCTCTGATCATAGTCAGACCAACATTGCTACGACCCGTATTCGCACCGACAC | -2.54 ± 0.42 | -1.5 ± 0.12
33 | ACATTTGTTGATACAACCATAAAATGATAATTACCAAAATAAATTGATAATTATCACACCCATAAATTGATATTGCCTCTGATCATAGTCAGACCAACATTGCTACGACCCGTATTCGCACCGACAC | -1.47 ± 0.039 | -0.773 ± 0.1
34 | ACATTTGTTGATACAACCATAAAATGATAATTACCAAACGCCCGGTCGCCGGCGACACAAACGCCCGGTCGCGGTAAGAGGATCATAGTCAGACCAACATTGCTACGACCCGTATTCGCACCGACAC | 0.864 ± 0.055 | -1.94 ± 0.27
35 | ACATTTGTTGATACAACCATAAAATGATAATTACCACCATAAATTGATAATTATCACACCCATAAATTGATATTGCCTCTGATCATAGTCAGACCAACATTGCTACGACCCGTATTCGCACCGACAC | -0.372 ± 0.27 | 0.0622 ± 0.17
